Reference: article PMC2481281
Values belong to the substance of their own block, whether it stands above or below them.

Experiments:
[1] = molecular target: CXCR7 on CXCR7-transduced A0.01 cells (UniProt P25106); assay: flow cytometry on cells; competition: 1 nM α-biot on CXCR7-transduced A0.01 cells with increasing concentrations of untagged chemokine, washed, labelled with 1 µg/ml streptavidin-PE; normalised to binding without competitor; one-site non-linear regression
[2] = molecular target: CXCL12γ protein, chemically synthesized (γ-wt) (mouse); assay: SDS-PAGE and immunoblot; chemically synthesized chemokines separated by SDS-PAGE and probed with the K15C mAb; dimeric forms seen
[3] = molecular target: α-wt C9 (CXCL12α with C-terminal bovine rhodopsin C9 tag) (mouse) (UniProt P40224); assay: SDS-PAGE and immunoblot; lysates of SFV-infected BHK cells separated by SDS-PAGE and probed with the K15C mAb; dimeric forms seen
[4] = molecular target: γ-wt C9 (CXCL12γ with C-terminal bovine rhodopsin C9 tag) (mouse); assay: as above

UniProt P25106, sequence (P25106 whole entry): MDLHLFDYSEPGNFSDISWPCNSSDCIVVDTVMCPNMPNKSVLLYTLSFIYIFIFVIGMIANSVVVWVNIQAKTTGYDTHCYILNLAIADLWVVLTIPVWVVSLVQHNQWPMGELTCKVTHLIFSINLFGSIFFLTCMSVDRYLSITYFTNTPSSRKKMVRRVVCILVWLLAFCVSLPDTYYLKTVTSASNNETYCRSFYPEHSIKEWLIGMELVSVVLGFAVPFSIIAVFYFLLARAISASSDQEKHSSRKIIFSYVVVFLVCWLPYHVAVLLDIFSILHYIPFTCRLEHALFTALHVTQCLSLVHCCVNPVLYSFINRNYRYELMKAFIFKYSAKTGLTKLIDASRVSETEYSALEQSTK

IC50 [1]: 10.4 nM
stoichiometry N [2]: 2
Substance: CXCL12γ protein, chemically synthesized (γ-wt) (ligand)

stoichiometry N [3]: 2
Substance: α-wt C9 (CXCL12α with C-terminal bovine rhodopsin C9 tag) (from UniProt P40224-2 22-93) (ligand)

stoichiometry N [4]: 2
Substance: γ-wt C9 (CXCL12γ with C-terminal bovine rhodopsin C9 tag) (ligand)
